This note sets out measurements from US20140227262A1, “PD-1 Antagonists and Methods for Treating Infectious Disease” (AMPLIMMUNE, INC., priority 2008, published 2014).

Assay [1] concerns CT26 colorectal tumor cells. Kind of assay: Established CT26 colorectal tumor model. To be noted: 100 mg/kg cyclophosphamide on day 10, alone.
Text: Balb/C mice at age of 9 to 11 weeks were implanted subcutaneously with 1.0×10^5 CT26 colorectal tumor cells.
The target of assay [2] is T1, recombinant human PD-1/Fc (Homo sapiens, UniProt Q15116).
T1 construct: Fc (immunoglobulin Fc fusion partner); purchased R&D Systems
Kind of assay: PD-1 binding ELISA, human B7-DC-Ig. To be noted: four different lots, FIG. 1A. As for the experimental part: 96-well ELISA plates were coated with 100 μL 0.75 ug/mL recombinant human PD-1/Fc (R&D Systems) diluted in BupH Carbonate/Bicarbonate pH 9.4 buffer (Pierce) for 2 hours and then blocked with BSA solution (Jackson ImmunoResearch) for 90-120 minutes. […] Absorbance at 450 nm was read using a plate reader (Molecular Devices) and data were analyzed in SoftMax using a 4-parameter logistic fit.
A general note: An ELISA detects its analyte on a solid surface through an enzyme-linked reagent.

The target of assay [3] is T2, recombinant mouse PD-1/Fc (Mus musculus, UniProt Q02242).
T2 construct: Fc (immunoglobulin Fc fusion partner); purchased R&D Systems
T2 sequence (Q02242 with tags, fused parts or gaps limits assumed): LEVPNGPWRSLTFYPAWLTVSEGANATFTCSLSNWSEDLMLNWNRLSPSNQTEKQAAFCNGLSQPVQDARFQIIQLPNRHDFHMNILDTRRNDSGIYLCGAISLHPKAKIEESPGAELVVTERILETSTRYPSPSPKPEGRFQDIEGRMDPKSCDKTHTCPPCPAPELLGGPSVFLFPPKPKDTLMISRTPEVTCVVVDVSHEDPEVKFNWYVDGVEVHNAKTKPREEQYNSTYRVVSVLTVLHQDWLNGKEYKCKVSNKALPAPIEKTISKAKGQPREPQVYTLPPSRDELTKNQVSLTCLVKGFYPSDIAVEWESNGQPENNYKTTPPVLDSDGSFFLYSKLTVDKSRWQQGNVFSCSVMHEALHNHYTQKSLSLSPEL
The experiment in a line: PD-1 binding ELISA, murine B7-DC-Ig. To be noted: FIG. 1B. As for the experimental part: 96-well ELISA plates were coated with 100 μL 0.75 ug/mL recombinant mouse PD-1/Fc (R&D Systems) diluted in BupH Carbonate/Bicarbonate pH 9.4 buffer (Pierce) for 2 hours and then blocked with BSA solution (Candor-Bioscience) for 90 minutes. […] Absorbance at 450 nm was read using a plate reader (Molecular Devices) and data were analyzed in SoftMax using a 4-parameter logistic fit.

Residue numbers refer to the chain shown, from its start. Numbers in names are those of the source.

T1 sequence (Q15116 with tags, fused parts or gaps limits assumed): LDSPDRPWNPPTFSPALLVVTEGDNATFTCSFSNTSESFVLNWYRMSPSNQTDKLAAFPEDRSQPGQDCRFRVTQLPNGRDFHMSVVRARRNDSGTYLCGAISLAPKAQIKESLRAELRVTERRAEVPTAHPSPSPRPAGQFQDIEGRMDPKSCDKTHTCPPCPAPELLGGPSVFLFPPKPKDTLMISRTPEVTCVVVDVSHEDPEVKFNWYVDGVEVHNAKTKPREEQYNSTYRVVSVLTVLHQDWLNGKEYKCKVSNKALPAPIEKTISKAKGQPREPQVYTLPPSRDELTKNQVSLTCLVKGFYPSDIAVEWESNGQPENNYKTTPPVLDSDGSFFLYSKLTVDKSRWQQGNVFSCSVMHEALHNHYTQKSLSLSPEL

As to `O=P1(N(CCCl)CCCl)NCCCO1` (centres unmarked) [CTX, cyclophosphamide], the “outcome of tumor-bearing mice (death or euthanasia)” value in assay [1] was “died as a result of tumor growth or were euthanized”. Turning to “human B7-DC-Ig: human PD-L2 (B7-DC) fusion protein; representative sequence SEQ ID NO: 56/57”, in assay [2], the “binding to PD-1 in PD-1 binding ELISA (OD450)” value (“binding” for short) is “binding to PD-1”.

B1: D111S: murine B7-DC-Ig with the D111S substitution (protein)
chain: LFTVTAPKEVYTVDVGSSVSLECDFDRRECTELEGIRASLQKVENDTSLQSERATLLEEQLPLGKALFHIPSVQVRDSGQYRCLVICGAAWSYKYLTVKVKASYMRIDTRILEVPGTGEVQLTCQARGYPLAEVSWQNVSVPANTSHIRTPEGLYQVTSVLRLKPQPSRNFSCMFWNAHMKELTSAIIDPLSRMEPKVPRTWEPRGPTIKPCPPCKCPAPNLLGGPSVFIFPPKIKDVLMISLSPIVTCVVVDVSEDDPDVQISWFVNNVEVHTAQTQTHREDYNSTLRVVSALPIQHQDWMSGKEFKCKVNNKDLPAPIERTISKPKGSVRAPQVYVLPPPEEEMTKKQVTLTCMVTDFMPEDIYVEWTNNGKTELNYKNTEPVLDSDGSYFMYSKLRVEKKNWVERNSYSCSVVHEGLHNHHTTKSFSRTPGK
Turning to B1, the “binding” value in assay [3] is listed as “reduced binding to PD-1”.

B2: K113S: murine B7-DC-Ig with the K113S substitution (protein)
chain: B1 chain with S92D, K94S
B2: the “binding” value in assay [3] is “reduced binding to PD-1”.

B3: wild type murine B7-DC-Ig: murine PD-L2 (B7-DC) fusion protein; representative sequence SEQ ID NO: 53/54 (protein, listed as Mus musculus)
chain: MLLLLPILNLSLQLHPVAALFTVTAPKEVYTVDVGSSVSLECDFDRRECTELEGIRASLQKVENDTSLQSERATLLEEQLPLGKALFHIPSVQVRDSGQYRCLVICGAAWDYKYLTVKVKASYMRIDTRILEVPGTGEVQLTCQARGYPLAEVSWQNVSVPANTSHIRTPEGLYQVTSVLRLKPQPSRNFSCMFWNAHMKELTSAIIDPLSRMEPKVPRTWEPRGPTIKPCPPCKCPAPNLLGGPSVFIFPPKIKDVLMISLSPIVTCVVVDVSEDDPDVQISWFVNNVEVHTAQTQTHREDYNSTLRVVSALPIQHQDWMSGKEFKCKVNNKDLPAPIERTISKPKGSVRAPQVYVLPPPEEEMTKKQVTLTCMVTDFMPEDIYVEWTNNGKTELNYKNTEPVLDSDGSYFMYSKLRVEKKNWVERNSYSCSVVHEGLHNHHTTKSFSRTPGK
In the case of B3, in assay [3], the “binding” value is “binding to PD-1”.
